Experimental data taken from the nanobody polyreactivity screen of Harvey et al. (2022).

Assay: yeast display, Sf9 membrane polyspecificity reagent, FACS + sequencing; frameworks hold sequencing errors
Method in brief: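 Nanobodies from a synthetic yeast display library (Saccharomyces cerevisiae BJ5465), induced 36–48 hours with galactose, were stained 1 hour at 4 °C with 10% biotinylated, detergent-solubilized Sf9 membrane reagent, enriched on streptavidin microbeads, then FACS-sorted. Anti-HA (expression) and streptavidin (reagent binding) fluorescence set low and high (top ~1%) gates. Polyreactivity labels come from the gate of origin. Genes were colony-PCR amplified, MiSeq 2 × 250 sequenced and filtered by CDR length.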

| Sequence | polyreactivity (PSR sort gate) |
| --- | --- |
| QVQLVESGGGLVQAGGSLRLSCAASGSTSTLYAMGWYRQAPGKERELVAAISKSGGRTYYADSVKGRFTISRDNAKNTVYLQMNSLKPEDTAVYYCAALAVYPRRFDYWGQGTQVTVSS | high polyreactivity |
| QVQLVESGGGLVQAGGSLRLSCAASGLTFVWYAMGWYRQAPGKERELVAAIRGGGSTYYADSVKGRFTISRDNAKNTVYLQMNSLKPEDTAVYYCAAPYARCLFYLLHYPRFSYDYWGQGTQVTVSS | high polyreactivity |
| QVQLVESGGGLVQAGGSLRLSCAASGSIFASYAMGWYRQAPGKERELVAAISRSGTSTRYADSVKGRFTISRDNAKNTVYLQMNSLKPEDTAVYYCAARWYVFFRKYDYWGQGTQVTVSS | high polyreactivity |
| QVQIVESGGGLVQAGGSLRLICAASGIIFEGYAMGWYRQAPGKERELVAAISQSGGSTRYADSVKGRFTISRDNATNTVYLQMNSLKPEDTAVYYFAKEVWNWGPYYYWGQGTQVTVSS | low polyreactivity |
| QVHLVESGGGLVQAGGSLRLSCAASGSTSNYYVKVWYGQAPGKERELVASISSGGSTNYADSVKGRFSISRDNAKNSVYLQKNSLKPEDTAVYYCARRRFTHRRYRFDFWGQGTQVTVSS | high polyreactivity |
| QVQLVESGAGLVQAGGSLRLSCAASGITFASYGMGWYRQAPGKERELVAAISQRGGRTYYADSVKGRFTISRDNAKNTVYLQMNRLKPEDTAVYYCAARTYTITGRSPQYLNAYGYWGQGTQVTVSS | high polyreactivity |
| QVQLVESGGGLVQAGGSLRLSCAASGSIFVVNAMGWYRQAPGKERELGASISQSGDNTYYADSVKGRFTISRDNAKNTVYLQMISLKTEDTAVYYCNAYGGYPEVDYWGQGTQVTVSS | low polyreactivity |
| QVQLVESGGGLVQAGGSLRLICAASGITLYRYAMGWYRQAPGKERELVADISSGGGTTYYADSVKGRFTISRDNAKNTVYLQMNSLKPEDTAVYYCAADYGFRYPLYDYWGQGTQVTVSS | low polyreactivity |
| QVQLVESGGGLDQAGGSLLLSCAASGSIFNDYAMGWYRQAPGKERELVAAISTSDGSTYYADSVKGRFTISRDNAKNTVYLQMKSLKPEDTAVYYCAVVSDYYYYPPYGYWGQGTQVTVSS | low polyreactivity |
| QVQLEEAGGGLVQAGGSLSLSCAASGSILKVYAMGWSRQAPGQERELVAGNTRAGGSTNDADSVKGRFTISRDYAKNTVLLQMNSLKPEDTPVYYCAGRLKCYRRRDYWGQGTQVSVSS | high polyreactivity |
| QVQLVESGGGLVQAGGSHRLSCADSGSIFWYNAMGWYRQAPGKEREFVATITWSGDSTYYADSVKGRFTISRDNAKNTVYLQMNSLKPEDTAVYYCAALLDYSVADLYSHHVSRYYYWGQGTQVTVSS | low polyreactivity |
| QVQLVESGGGLVQAGGSLRLSCAASGSIFYSYAMGWYRQAPGKERELVAAINSGGRTYYADSVKGRFTISRDNAKNTVYLQMNSLKPEDTAVYYCAARHRWGRAYDYWGQGTQVTVSS | high polyreactivity |
| QVQLQQSGGGLVQAGGSLRLSCAASGSIFDGFNMGWYRQAPGKAREFVAAIRYGASTYYADSVKGRFTVSRDNAKNSVYLQMNSLNPEDTAVYYCAKAYSDGYFPTFDYDYWGQGTQVTVSS | low polyreactivity |
| QVQLVETGGGLVQAGGSLRLSCAASGSTFVWYDMGRYRQAPGKERELVATITSGGITTYADSVKGRFTISRDNAKNTVYLKMNSLKPEDTAVYYCNADLYYWLRYYDRNDYLGQGTQVTVSS | low polyreactivity |
| QVQLVESGGGLVQAGGSLRLSCAASGSIFKPYAMGWYRQAPGKERELVAAINRGGTSTYYADSVKGRFTISRDNAKNTVYFQMNSLKPEDTAVYYCAAPNRYSVPMYYWGQGTQVTVSS | low polyreactivity |
| QVQLVESGGGLVQAGGSLRLSCAASGFTFYYYAMGWYRQAPGKERELVAAISRSGGSTYYADSVKGRFTISRDNAKNTVYLQMNSLKPEDTAVYYCAARRLVGAERPGYDYWGQGTQVTVSS | high polyreactivity |
| QVQLVETGGGLVQARGSLRLSCAASVRIFYYNAMGWYRQSPGKERELVAAITRSGSTNYAESVKGRFTISRDNAKNTVYLKMNSLKPEDTAVYYCAADSLKRYDYWGQGTQVTVSS | low polyreactivity |
| QGQLVESGGGLVHAGGRLRLSCAASGSTFTTYAMGWYRQAPGTERELVAAISTNGGRTFYADSVKGRFTISRDNAKTTFYLQMNSLKTEDTAVYYCAAQYGLYAPGYYYWGHGTQVTVSS | low polyreactivity |
| QVQLVESGGGLVQAGGSLRLSCAASGSTFLRYAMGWYRQAPGKERELVAAISVSGGSTYYADSVKGRFTISRDNAKNTVYLQMNSLKPEDTAVYYCNAVTKFHRRYNYWGQGTQVTVSS | high polyreactivity |
| QVQLVESGGGLGQAGGSLRLSCAASGSIFRGYAMGWYRQAPGKERELVAAISWSGGSTYYADSVKGRFTISRDNAKNTVYLQMNSLKPEDTAVYYCAADRDVFGYWYYYWGQGTQVTVSS | high polyreactivity |
| QVQLVESGGGLVQAGGSLRLTCAASGSTFITYAMGWYRQAPGKERELVAAIRVIGGRTYYADSVKGRFTISRDNAKNTVYLQMNSLKPEDTAVYYCAARPYKSYGYHYSYDYWGQGTQVTVSS | high polyreactivity |
| QVQLVESGGGLVQAGGSLRLSCAASGSTFYWYAMGWYRQAPGKERELVAAITYSSGRTYYADSVKGRFTISRDNAKNTVYLQMNSLKPEDTAVYYCGWSALNGYDYWGQGTQVTVSS | high polyreactivity |

| Sequence | polyreactivity (PSR sort gate) |
| --- | --- |
| QVQLVESGGGLVQAGGSLRLSCAASGSTFYRYAMGWYRQAPGKERELVATIRSSGDSTNYADSVKGRFTISRDNAKNTVYLQMNSLKPEDTAVYYCAKYGKYTWRQGGYWGQGTQVTVSS | high polyreactivity |
| QFQLVESGGGLVQAGGSLRLSCAASGSTLELNAMGWYIQAPGKERELVAAITSSGGRTYYADSVKGRFTISRDNAKNTVYLQMNSLKPEDTAVYYCAAEPGQHRVVDRYDYWGQGTQVTVSS | low polyreactivity |
| QVQLVESGGGLVQAGGSLRLSCAASGSIFRFYAMGWYRQAPGKERELDAVITSTGRKYYADSVKGRFTISRDNAKNTGYLQMTSLKPEDTAVYYCNAAEAGKGAYAYDYWGQGTQVTVSS | low polyreactivity |
| HVQLVESGVGLVQAAGILRLSCAASGRTFSVYVMGWYRQATGKERELVAAISTSGARTYYADSVKGRFTISRDHAKNTVFLQMNSLKPEATAVYYCGARAIYKSKYDYWGHGTQVTVSS | high polyreactivity |
| QVQLVESGGGLVHAGGSLRLSCAASGSTFYYYAMGWYRQAPGKERELVAAIRGDSTYYADSVKGRFTISRDNAKYTVYLQMYSLKTEDTAFYYCAADWYDTGFWWTYPYDYWGQGTQVTVSS | low polyreactivity |
| QVQLVESGGGLVQAGGSLRLSCAASGRSFNPYAMGWYRQAPGKERELVAAITNSGGSTYYADSVKVRFTISRDTAMNTFYLQMNSLKPEDTAVYYCNARRYPRYYYWGQGTQVTGSS | high polyreactivity |
| QVQLQDSGGGLVQARGSLRPSCAASGTISDGVPMGWYRQAPGEVRELVATTVLGATTNYADSVKGRFTISRGNAKNTVYLQMNSLKPEETAVYYCAAPLRYDKGFSYWGQGTQVTVSS | low polyreactivity |
| QVQLVESGGGLVQAGGSLRLSCAASGSTLVFSAMGWYRQAPGKERELVAAITRSGGSTYYADSVKGRFTITRDNAKNTVYLQMNSLKPEDTAVYYCAADERYIYERDSWGQGTQVSVSS | low polyreactivity |
| QVQLVESGGGLVQAGGSLRFSFAASGINFRFNAMGWYRQAPGKEREFVAAITYSGDSTYYADSVKGRFTISRDNAKNTVFLQMNSLKREDTAVYYCAADYYAISRRIFYYWGQGTQVTVSS | low polyreactivity |
| QVQLVESGGGLVQAGGSLRLSCAASGYTFTQNAMGWYRQAPGKERELVASITSGGSTDYADSVKGRFTISRDNAKNTVYLQMNSLKPEDTAVYYCAKDYYAYSDYDYWGQGTQVTVSS | low polyreactivity |
| QVQLVESGGGLVQAGGSLRLSCAASGRTFRRYAMGWYRQAPGKERELVASISRTGGSTYYADSVKGRFTISRDNSKNTVYLQMNSLKPEDTAVFYCNAGPSVGWYNYWGQGTQVTVSS | high polyreactivity |
| QVQLVESGGGLVQAGGSLRLSCAASGRIIGAYAMGWYRQAPGKERELVARISWSGGTTYYADSVKGRFTISRDNAKNTVYLQMDSLKPEDTAVYYCAARYSYYVTGGISKYDYWGQGTQVSVSS | low polyreactivity |
| QVQLQESGGGLVQAGGSLRLSCAASGNIVDADIMGWYRQAPRKERELVASITDGGSTNYADSVKGRFTISRDNAKNTVYLQMNSLIPEDTAVYYCAAISYPDIPTYFDYDSEYFYWGQGTQVSVSS | low polyreactivity |
| QVQLVESGGGLVQAGGSLRLSCAASGIIFYLNAMGWYRQAPGKERELVAGITYSGGSTYYADSVKGRFTISRDNAKNTVYLQMNSLKPEDTAVYYCAARTKWYIFLYDYWGQGTQVTVSS | low polyreactivity |
| QVQLVESGGGLVQAGGSLRLSCAASGRTFRRNVMGWYRQAPGKERELVAAISSGANTNYADSVKGRFTISRDNAKNTVYLQMNSLKPEDTAVYYCAAGEGWRSRTFDYWGQGTQVTVSS | low polyreactivity |
| QVQLVESGGGLVQAGGSLRLSCAASGRTSDINTMGWYRQAPGKERELVAAISDSDGTTYYADSVKGRFTISRDNAKNTVYLQMNSLKPDDTAVYYCAAERATVKFGYWGQGTQVTVSS | low polyreactivity |
| QVQRVESGGGLVQAGGRLRVSCAASGRTFYIYAMGWYRQAPGKERELVADITSGGSTYYADSVKGRFTISRDNAKNTVYLQMNCLKPEDTAVYYCNAGPHWFYRYGRYDYWGQGTQVTVSS | low polyreactivity |
| QVQLVESGGGLVQAGGSLRLSCAASGRTFYWYAMGWYRQAPGKERELVAAIRWSTGSTYYADSVKGRFTISRDNAKNTVYLQMNSLKPEDTAVYYCAATRPSWRYNYWGQGTQVTVSS | high polyreactivity |
| QVQLVESGGGLVQAGGSLRLSCAASGIIFYHYPMGWYRQAPGKERELVAAITGSGIRTYYADSVKGRFTISRDNAMNTVYLQMNSLKPEDTAVYYCGAQQRYWSTYGYWGQGTQVTVSS | high polyreactivity |
| QVQLVESWGGLVQAGGSLRLSCAASGLIFKVYAMGWYRQAPGKERELVAAITYSGGSTDYADSVKGRFTISRDNAKNTVYLQMNSLKPEDTAVYYCNVEKVGHVNSYGYDYWGQGTQVTVSS | low polyreactivity |
| QVQLVESGGGLVQAGGSLRLSCAASGFIFRYYAMGWYRQAPGKERELVAAISRSGGRTYYADSVKGRFTISRDNAKNTVYLQMNSLKPEDTAVYYCAARYPVRPDDGYWGQGTQVTVSS | high polyreactivity |
